This note sets out measurements from US20250011363A1, “OPTIMIZED SHORTENED PEPTIDE THAT BINDS TO ACETYLCHOLINE RECEPTOR, AND USE THEREOF” (SKINMED CO., LTD., priority 2021, published 2025).

Assay [1] addresses acetylcholine receptor. As to the kind of experiment: SPR, AchR immobilized on CM5 chip, peptide 10 µM. In general terms: SPR reads the build-up and loss of mass on a sensor chip optically.
Assay [2] addresses acetylcholine receptor. As to the kind of experiment: SPR, peptide at 10 uM, AchR immobilized.

The molecule RSQSRR [6mer-2-210] showed a Binding affinity (RU) in assay [1] of 128 RU.

Take RRDNAR [6mer-1-728]: the Binding affinity in assay [2] is 23 RU.

For KGILKK [6mer-2-216], the Binding affinity (RU) in assay [1] stood at 126 RU.

KKHSMK [6mer-1-726] yielded a Binding affinity in assay [2] of 33 RU.

RRMCER [6mer-1-704] returned a Binding affinity in assay [2] of 16 RU.

As for RLIYKK [6mer-2-202], the Binding affinity (RU) in assay [1] is 122 RU.

In assay [2], KRTEWR [6mer-1-705] returned a Binding affinity of 12 RU.

KSFQRK [6mer-2-205]: the Binding affinity (RU) in assay [1] was 147 RU.

RKMPAK [6mer-1-723] registered a Binding affinity in assay [2] of 33 RU.

For RLYYRR [6mer-2-215], the Binding affinity (RU) in assay [1] came to 123 RU.

The molecule KRTSFK [6mer-1-714] yielded a Binding affinity in assay [2] of 25 RU.

As to RWRSRK [6mer-2-214], in assay [1], the Binding affinity (RU) stood at 139 RU.

For KKFHPR [6mer-1-703], the Binding affinity in assay [2] was 18 RU.

The molecule RRAAVR [6mer-1-732] displayed a Binding affinity in assay [2] of 26 RU.

For KRPKNK [6mer-1-724], the Binding affinity in assay [2] amounted to 19 RU.

The molecule RKKMWK [6mer-1-700] came in with a Binding affinity in assay [2] of 19 RU.

Turning to RKAMEK [6mer-1-721], the Binding affinity in assay [2] stood at 22 RU.

Regarding KKFKPK [6mer-1-709], in assay [2], the Binding affinity was found to be 29 RU.

On to KKPSNK [6mer-1-712], for which the Binding affinity in assay [2] came out at 24 RU.

For the molecule RSQQRK [6mer-2-208], the Binding affinity (RU) in assay [1] turned out to be 128 RU.

KRFWPK [6mer-1-707] registered a Binding affinity in assay [2] of 26 RU.

RRIKAR [6mer-1-731] came in with a Binding affinity in assay [2] of 18 RU.

Regarding KRDWVK [6mer-1-702], the Binding affinity in assay [2] amounted to 31 RU.

KWVSKR [6mer-2-207]: the Binding affinity (RU) in assay [1] worked out at 153 RU.

Take RRTTVR [6mer-1-699]: the Binding affinity in assay [2] stood at 28 RU.

Molecule RRNKVR [6mer-1-722] yielded a Binding affinity in assay [2] of 12 RU.

In turn, RRKHKR [6mer-1-720] gave a Binding affinity in assay [2] of 11 RU.

KWQLRR [6mer-2-212] gave a Binding affinity (RU) in assay [1] of 148 RU.

In assay [2], KKMHHR [6mer-1-710] displayed a Binding affinity of 21 RU.

In turn, KRMMVK [6mer-1-715] gave a Binding affinity in assay [2] of 18 RU.

As to RRKTWR [6mer-1-701], in assay [2], the Binding affinity was determined as 13 RU.

In assay [1], KGVSKK [6mer-2-218] had a Binding affinity (RU) of 147 RU.

RKFKAR [6mer-1-718] gave a Binding affinity in assay [2] of 23 RU.

Take KSILRR [6mer-2-213]: in assay [1], the Binding affinity (RU) is 142 RU.

In the case of KKDKPK [6mer-1-725], the Binding affinity in assay [2] is 32 RU.

RLYYRK [6mer-2-209] yielded a Binding affinity (RU) in assay [1] of 148 RU.

In assay [2], RKANGK [6mer-1-727] showed a Binding affinity of 29 RU.

In assay [2], KKKSGK [6mer-1-729] showed a Binding affinity of 23 RU.

The molecule KRHEDR [6mer-1-717] had a Binding affinity in assay [2] of 22 RU.

Take KLFQKK [6mer-2-217]: the Binding affinity (RU) in assay [1] was determined as 135 RU.

In assay [2], KRATFR [6mer-1-730] displayed a Binding affinity of 13 RU.

RGLSRR [6mer-2-211] displayed a Binding affinity (RU) in assay [1] of 135 RU.

In assay [2], RRATHR [6mer-1-711] yielded a Binding affinity of 19 RU.

In the case of KKDAEK [6mer-1-719], the Binding affinity in assay [2] amounted to 27 RU.

In the case of KSRTKR [6mer-2-203], the Binding affinity (RU) in assay [1] is 135 RU.

Molecule RRMPFK [6mer-1-716] registered a Binding affinity in assay [2] of 11 RU.

In assay [1], KWQYKK [6mer-2-206] yielded a Binding affinity (RU) of 148 RU.

Turning to KKATNK [6mer-1-713], the Binding affinity in assay [2] was found to be 20 RU.

Regarding KRFNHK [6mer-1-698], the Binding affinity in assay [2] worked out at 27 RU.

As to RRVQKR [6mer-2-204], the Binding affinity (RU) in assay [1] is 142 RU.

KKKHEK [6mer-1-708]: the Binding affinity in assay [2] worked out at 14 RU.

Regarding KRMKDR [6mer-1-706], the Binding affinity in assay [2] is 29 RU.
